Numbering of substitutions follows the chain as printed.
B1: ATV:TREM2 #5 (antibody, human IgG1, kappa, L234A L235A)
heavy 1: EVQLVESGGGLVQPGGSLRLSCAASGFTFTDFYMSWVRQAPGKGLEWVSVIRNKANAYTAGYNPSVKGRFTISRDNSKNTLYLQMNSLRAEDTAVYYCARLTYGFDYWGQGTLVTVSSASTKGPSVFPLAPSSKSTSGGTAALGCLVKDYFPEPVTVSWNSGALTSGVHTFPAVLQSSGLYSLSSVVTVPSSSLGTQTYICNVNHKPSNTKVDKKVEPKSCDKTHTCPPCPAPEAAGGPSVFLFPPKPKDTLMISRTPEVTCVVVDVSHEDPEVKFNWYVDGVEVHNAKTKPREEQYNSTYRVVSVLTVLHQDWLNGKEYKCKVSNKALPAPIEKTISKAKGQPREPQVYTLPPSRDELTKNQVSLWCLVKGFYPSDIAVEWESYGTEWSNYKTTPPVLDSDGSFFLYSKLTVSKEEWQQGFVFSCSVLHEALHSHYTQKSLSLSPGK
heavy 2: EVQLVESGGGLVQPGGSLRLSCAASGFTFTDFYMSWVRQAPGKGLEWVSVIRNKANAYTAGYNPSVKGRFTISRDNSKNTLYLQMNSLRAEDTAVYYCARLTYGFDYWGQGTLVTVSSASTKGPSVFPLAPSSKSTSGGTAALGCLVKDYFPEPVTVSWNSGALTSGVHTFPAVLQSSGLYSLSSVVTVPSSSLGTQTYICNVNHKPSNTKVDKKVEPKSCDKTHTCPPCPAPEAAGGPSVFLFPPKPKDTLMISRTPEVTCVVVDVSHEDPEVKFNWYVDGVEVHNAKTKPREEQYNSTYRVVSVLTVLHQDWLNGKEYKCKVSNKALPAPIEKTISKAKGQPREPQVYTLPPSRDELTKNQVSLSCAVKGFYPSDIAVEWESNGQPENNYKTTPPVLDSDGSFFLVSKLTVDKSRWQQGNVFSCSVLHEALHSHYTQKSLSLSPGK
light: DIVMTQTPLSLPVTPGEPASISCQSSKSLLHSTGKTYLNWYLQKPGQSPQLLIYWMSTRASGVPDRFSGSGSGTDFTLKISRVEAEDVGVYYCQQFLEYPFTFGQGTKVEIKRTVAAPSVFIFPPSDEQLKSGTASVVCLLNNFYPREAKVQWKVDNALQSGNSQESVTEQDSKDSTYSLSSTLTLSKADYEKHKVYACEVTHQGLSSPVTKSFNRGEC
notes: Knob/hole heterodimeric IgG1; the second carries hole, LALA and LS; also called anti-TREM2/CH35.23.4
B2: ATV:TREM2 #4 (antibody, human IgG1, kappa, L234A L235A)
heavy 1: B1 heavy 1 with S390V, S414T
heavy 2: not shown
light: B1 light
notes: Knob/hole heterodimeric IgG1; the second carries hole and LS only, without LALA; also called CH3C.35.23.3 cisLALA
B3: ATV:TREM2 #3 (antibody, human IgG1, kappa, L234A L235A)
heavy 1: B1 heavy 1 with S390V, S414T
heavy 2: B1 heavy 2
light: B1 light
notes: Knob/hole heterodimeric IgG1; the second carries hole, LALA and LS; also called anti-TREM2/CH35.23.3
B4: ATV:TREM2 #2 (antibody, human IgG1, kappa, L234A L235A)
heavy 1: B1 heavy 1 with Y385F
heavy 2: B1 heavy 2
light: B1 light
notes: Knob/hole heterodimeric IgG1; the second carries hole, LALA and LS; also called anti-TREM2/CH35.23.1.1
B5: TREM2 Ab (antibody, human IgG1, kappa, L234A L235A, V domains shown)
VH: EVQLVESGGGLVQPGGSLRLSCAASGFTFTDFYMSWVRQAPGKGLEWVSVIRNKANAYTAGYNPSVKGRFTISRDNSKNTLYLQMNSLRAEDTAVYYCARLTYGFDYWGQGTLVTVSS
VL: DIVMTQTPLSLPVTPGEPASISCQSSKSLLHSTGKTYLNWYLQKPGQSPQLLIYWMSTRASGVPDRFSGSGSGTDFTLKISRVEAEDVGVYYCQQFLEYPFTFGQGTKVEIKR
notes: also called corresponding anti-TREM2 antibody; TREM2 IgG

Target: T1, recombinant cynomolgus TREM2 ECD (cynomolgus, UniProt A0A2K5UY34 49-204)
T1 construct: extracellular domain; also called Cyno TREM2
T1 sequence: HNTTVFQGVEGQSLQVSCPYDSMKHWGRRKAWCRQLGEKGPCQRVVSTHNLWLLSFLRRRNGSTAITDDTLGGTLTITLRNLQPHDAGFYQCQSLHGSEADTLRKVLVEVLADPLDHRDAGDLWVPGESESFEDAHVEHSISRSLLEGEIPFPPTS
Assay: SPR (Biacore), antibody captured by anti-human Fab, cyno TREM2 ECD as analyte
Description: (§1) Surface plasmon resonance (Biacore™ 8K instrument) was used to measure anti-TREM2 antibody affinities for human and cynomolgus TREM2 ECD. Anti-TREM2 antibodies were captured using Human Fab Capture Kit (GE Healthcare Life Sciences, Catalog No. 28958325) on a Biacore Series S CM5 sensor chip (GE Healthcare Life Sciences, Catalog No. 29149604). Serial 3-fold dilutions of recombinant human or cynomolgus TREM2 were injected at a flow rate of 30 μL/min. Antibody binding was monitored for 300 seconds, followed by monitoring of antibody dissociation for 600+ seconds in HBS-EP+ running buffer (GE Healthcare Life Sciences, Catalog No. BR100669). The binding response was corrected by subtracting the RU value from a blank flow cell. A 1:1 Languir model of simultaneous fitting of kₒₙ and koff was used for kinetics analysis. KD binding values were calculated from kₒₙ and koff.

B1 and B2 are within 1.5-fold of each other in Kd: 2.4 nM for the first, 2.2 nM for the second.

B3 and B4 are within 1.5-fold of each other in Kd: 2.2 nM for the first, 2.4 nM for the second.

Target: T2, human TREM2 expressed on HEK293-H6 cells (human, UniProt Q9NZC2 19-230)
T2 construct: Wild type human TREM2 stably co-expressed with DAP12 in HEK 293 cells (clone HEK293-H6); also called Human TREM2 HEK; TREM2 expressed by HEK293-H6 cells
T2 sequence: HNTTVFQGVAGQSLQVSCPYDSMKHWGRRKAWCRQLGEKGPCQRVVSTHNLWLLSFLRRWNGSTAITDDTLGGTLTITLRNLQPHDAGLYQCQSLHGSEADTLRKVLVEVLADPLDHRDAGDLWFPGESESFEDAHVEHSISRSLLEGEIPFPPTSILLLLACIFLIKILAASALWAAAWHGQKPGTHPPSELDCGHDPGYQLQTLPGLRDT
Assay: flow cytometry on human TREM2-expressing HEK cells
Description: (§2) After incubation, the cells were centrifuged and washed in FACS buffer (PBS+0.5% BSA) twice. Mixed cells were resuspended in FACS buffer with human Trustain FcX solution (Biolegend, Catalog No. 422302) at a density of 10⁶/mL per cell line. The mixed cell lines were seeded at 200,000 cells per well in a 96-well round-bottom plate and incubated for 20 minutes at room temperature. After incubation, the cells were centrifuged and incubated with a dose titration of anti-TREM2 antibodies for 45 minutes on ice. After incubation, the cells were centrifuged and washed with FACS buffer three times. The cells were then incubated with secondary antibody (Alexa Fluor 647 AffiniPure F(ab′)2 Fragment Goat Anti-human IgG(H+L), Jackson ImmunoResearch Laboratories, Catalog No. 109-606-088, 1:800 dilution) for 30 minutes on ice. After incubation, the cells were washed with FACS buffer three times, resuspended in 100 μL of FACS buffer, and analyzed by flow cytometry (BD FACSCanto II, San Jose, Calif.), for which 30,000 events were obtained for each sample. Mean fluorescence intensity per cells were calculated by FlowJo software and used for generating dose response binding curve.

B1 and B3 are within 1.5-fold of each other in EC50: 3.6 nM for the first, 4.6 nM for the second.

Binder B4 has an EC50 of 4.9 nM.

Target: T3, human transferrin receptor (human, UniProt P02786 89-760, limits assumed)
T3 construct: also called Human TfR; TfR
T3 sequence (P02786 89-760 limits assumed): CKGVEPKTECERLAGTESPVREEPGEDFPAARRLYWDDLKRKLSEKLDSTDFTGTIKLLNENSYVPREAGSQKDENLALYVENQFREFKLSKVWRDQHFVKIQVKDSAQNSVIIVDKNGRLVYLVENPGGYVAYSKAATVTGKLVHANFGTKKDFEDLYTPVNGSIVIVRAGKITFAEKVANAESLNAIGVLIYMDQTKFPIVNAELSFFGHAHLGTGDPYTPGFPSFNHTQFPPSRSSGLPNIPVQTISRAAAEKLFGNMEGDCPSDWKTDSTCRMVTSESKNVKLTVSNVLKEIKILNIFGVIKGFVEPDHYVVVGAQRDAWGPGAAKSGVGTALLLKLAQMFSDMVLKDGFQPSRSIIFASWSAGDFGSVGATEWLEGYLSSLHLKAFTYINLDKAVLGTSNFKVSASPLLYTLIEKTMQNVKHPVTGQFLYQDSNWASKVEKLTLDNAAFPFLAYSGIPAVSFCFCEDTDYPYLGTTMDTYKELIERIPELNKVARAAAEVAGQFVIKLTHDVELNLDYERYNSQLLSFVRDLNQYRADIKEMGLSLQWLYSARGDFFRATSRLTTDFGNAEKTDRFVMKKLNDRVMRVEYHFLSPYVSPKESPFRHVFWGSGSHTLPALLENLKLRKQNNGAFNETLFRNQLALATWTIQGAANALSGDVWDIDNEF
Assay: SPR (Biacore), antibody captured by anti-human Fab on CM5 chip, human TfR as analyte, 1:1 model
Description: Binding of anti-TREM2 protein to human transferrin receptor was determined as follows: anti-human-Fab was immobilized on a CM5 chip, and the anti-TREM2 protein was captured. Full-length human TfR or human TfR apical domain at serial dilution (e.g., concentrations of 1-1,000 nM) was flowed over the chip (180 second association time) and then allowed to dissociate. Fitting was performed using a 1:1 binding model.

First: B1
Second: B3
The Kd of the first is 2.3-fold lower: 620 nM for the first, 1400 nM for the second.

B4 showed a Kd of 650 nM.

Target: T4, recombinant human TREM2 ECD (human, UniProt Q9NZC2 19-172)
T4 construct: TREM2' / 'TREM2 ECD'; also called hTREM2; Human TREM2 (Biacore)
T4 sequence: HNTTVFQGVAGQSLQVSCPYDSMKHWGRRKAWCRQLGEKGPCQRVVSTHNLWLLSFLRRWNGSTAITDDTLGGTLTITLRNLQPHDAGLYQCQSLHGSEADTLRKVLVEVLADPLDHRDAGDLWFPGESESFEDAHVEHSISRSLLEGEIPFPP
Assay: SPR (Biacore), antibody captured by anti-human Fab, TREM2 ECD as analyte
Description: as §1

First: B1
Second: B2
The Kd of the first is 2.9-fold higher: 5.7 nM for the first, 2 nM for the second.

Compared with B3, B4 is 1.8-fold higher in Kd: 3 nM for the first, 5.4 nM for the second. The first binds more tightly here.

Target: T2, human TREM2 expressed on HEK293-H6 cells
Assay: flow cytometry, dose titration on HEK 293 cells expressing human TREM2 (TREM2-expressing HEK)
Description: as §2

For B5, the “EC50 (read off the curve)” value was roughly 0.4 nM.

From patent publication US20220177576A1 (DENALI THERAPEUTICS, published 2022)
